Measured values published in PMC6220978, “Induced conformational changes activate the peptidoglycan synthase PBP1B” (Molecular Microbiology, 2018).
Residue numbers refer to the chain shown, from its start.

Key:
Experiment in all cases: SPR; PBP1B versions immobilised to the chip surface; CpoB versions injected from either 3.9 nM to 2 μM or from 78 nM to 40 μM; apparent KD by non-linear regression, at least three independent experiments
Conditions in all cases: both partners purified
[1] = target: T1, PBP1B (wild type, PBP1B^46-844) (E. coli, UniProt P02919 46-844)
T1 construct: PBP1B, E. coli, residues 46-844, encoded on pDML924; Immobilised on the SPR chip as in Egan et al. 2014 / Gray et al. 2015; also called WT PBP1B; WT; source: E. coli BL21(DE3), purified (membrane extract, HisTrap, thrombin, HiTrap SP ion exchange)
T1 sequence (looked up): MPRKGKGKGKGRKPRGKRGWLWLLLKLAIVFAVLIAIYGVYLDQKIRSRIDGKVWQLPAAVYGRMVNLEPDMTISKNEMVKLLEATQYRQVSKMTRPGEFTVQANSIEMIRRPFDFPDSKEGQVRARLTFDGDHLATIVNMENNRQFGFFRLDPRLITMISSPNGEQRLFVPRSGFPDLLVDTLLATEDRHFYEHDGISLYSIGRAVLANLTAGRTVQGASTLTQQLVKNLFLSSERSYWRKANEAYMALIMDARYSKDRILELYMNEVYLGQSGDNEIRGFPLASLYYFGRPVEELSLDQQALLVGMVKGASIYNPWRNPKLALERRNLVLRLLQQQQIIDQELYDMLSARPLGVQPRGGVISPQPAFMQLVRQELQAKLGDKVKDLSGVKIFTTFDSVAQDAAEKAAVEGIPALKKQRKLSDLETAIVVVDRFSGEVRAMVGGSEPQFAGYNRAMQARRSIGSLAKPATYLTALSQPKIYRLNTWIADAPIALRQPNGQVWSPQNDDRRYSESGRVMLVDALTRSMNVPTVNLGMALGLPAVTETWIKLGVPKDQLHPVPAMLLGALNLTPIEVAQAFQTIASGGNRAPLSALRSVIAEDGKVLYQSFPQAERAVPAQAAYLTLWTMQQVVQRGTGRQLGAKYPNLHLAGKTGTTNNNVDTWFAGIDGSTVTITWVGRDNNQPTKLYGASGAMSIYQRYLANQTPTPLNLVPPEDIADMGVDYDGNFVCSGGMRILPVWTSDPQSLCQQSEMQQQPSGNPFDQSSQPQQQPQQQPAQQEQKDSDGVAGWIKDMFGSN

PBP1B R157A = target: T2, PBP1B R157A (E. coli, UniProt P02919 46-844, R157A)
T2 construct: PBP1B, E. coli, residues 46-844, made by mutagenesis of pDML924; source: E. coli BL21(DE3), purified (membrane extract, HisTrap, thrombin, HiTrap SP ion exchange)
T2 sequence (looked up): T1 sequence (looked up) with R112A

PBP1B D443A = target: T3, PBP1B D443A (E. coli, UniProt P02919 46-844, D443A)
T3 construct: PBP1B, E. coli, residues 46-844, made by mutagenesis of pDML924; source: E. coli BL21(DE3), purified (membrane extract, HisTrap, thrombin, HiTrap SP ion exchange)
T3 sequence (looked up): T1 sequence (looked up) with D398A

B1: CpoB (full length) (natural protein, E. coli, UniProt P45955 27-263, looked up)
chain: QAPISSVGSGSVEDRVTQLERISNAHSQLLTQLQQQLSDNQSDIDSLRGQIQENQYQLNQVVERQKQILLQIDSLSSGGAAAQSTSGDQSGAAASTTPTADAGTANAGAPVKSGNANTDYNAAIALVQDKSRQDDAMVAFQNFIKNYPDSTYLPNANYWLGQLNYNKGKKDDAAYYFASVVKNYPKSPKAADAMFKVGVIMQDKGDTAKAKAVYQQVISKYPGTDGAKQAQKRLNAM
notes: CpoB, E. coli; The coiled-coil construct begins at residue 27, so the purified 'full length' protein may lack the signal peptide (surmise); source: E. coli BL21(DE3), purified (HisTrap, Superdex 200), as in Gray et al. 2015
With B1 the Kd [1] was 94 nM, the Kd (PBP1B R157A) was 147 nM and the Kd (PBP1B D443A) was 95 nM.
